Key:
[1] = Circular dichroism: degree of helicity (free, SUVs, micelles, TFE); conditions: for % Helicity Free: free in buffer
Outline: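 Far-UV CD (190–260 nm) at 37 °C on 5 μM peptide in 5 mM phosphate pH 7.4, either free, with EPC:Chol 20:1 SUVs (Ri 30 or 50), with lysophosphatidylcholine micelles (Ri 100), or in 90% TFE. Helicity derived from mean residue ellipticity at 222 nm or CONTIN fitting to reference spectra.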

isolated human HDL = experiment: Formation of pre-β like particles: displacement of human ApoA-I from isolated human HDL; assay type: binding; conditions: increasing peptide:HDL mass ratio
Protocol: Human HDL was isolated by KBr density ultra centrifugation at density d=1.21 g/ml to obtain top fraction followed by Superose 6 gel filtration chromatography to separate HDL from other lipoproteins. Isolated HDL was adjusted to a final concentration of 1.0 mg/ml with physiological saline based on protein content determined by Bradford protein assay. An aliquot of 300 μl was removed from the isolated HDL preparation and incubated with 100 μl ^14C-labeled peptide 4 (0.2-1.0 μg/μl) for two hours at 37° C. Five separate incubations were analyzed including a blank containing 100 μl physiological saline and four dilutions of ^14C-labeled peptide 4: (i) 0.20 μg/μl peptide:HDL ratio=1:15; (ii) 0.30 μg/μl peptide:HDL ratio=1:10; (iii) […] peptide:HDL ratio=1:5; and (iv) 1.00 μg/μl peptide:HDL ratio=1:3. Following the two hour incubation, a 200 μl aliquot of the sample (total volume=400 μl) was loaded onto a Superose 6 gel filtration column for lipoprotein separation and analysis, and 100 μl was used to determine total radioactivity loaded. The conditions for all FPLC chromatographies were as described in Section 9.4, infra.

HepG2 hepatoma cells = experiment: Cholesterol efflux; assay type: cell-based; conditions: peptide:DMPC complexes 1:2 (w:w), 1-25 μg/ml, 24 hours; compared with native human ApoA-I
Protocol: HepG2 hepatoma cells were plated into 6-well culture dishes and grown to confluence. Cells were labeled with ^3H-cholesterol by drying the cholesterol, then adding 1% bovine serum albumin (BSA) in phosphate buffered saline (PBS), sonicating the solution, and adding 0.2 ml labeling solution and 1.8 ml growth medium to the cells, so that each well contained 2 μCi of radioactivity. Cells were incubated for 24 h with the labeling medium.
Peptide (or protein):DMPC complexes were prepared at a 1:2 peptide (or protein):DMPC ratio (w:w). […] Peptide or protein concentration in the final solution was 1 mg/ml.
Labeling media was removed from the cells and the cells were washed with PBS prior to addition of complexes. 1.6 ml of growth medium was added to each well, followed by peptide (or protein): DMPC complex and sufficient PBS to bring the final volume to 2 ml per well. The final peptide or ApoA-I concentrations were 1, 2.5, 5, 7.5 and 25 μg/ml medium. After 24 hours of incubation at 37° C., the medium was removed, and the cells washed with 2 ml of 1% BSA/PBS, followed by 2 washes with 2 ml each of PBS. The amount of ^3H-cholesterol effluxed into the medium was determined by liquid scintillation counting.

For PVLDLFRELLNELLEALKQKLK [peptide 4], the “% helicity in the presence of SUVs” value [1] was 97%, the “% helicity in the presence of TFE” value [1] was 94% and the “% Helicity Bound (micelles)” value ([1]; peptide concentration 0.15 μM) was 65%. For the same sequence, the “% Helicity Free” value ([1]; peptide concentration 0.15 μM) was 42%, the “% Helicity Bound (micelles)” value ([1]; peptide concentration 0.40 μM) was 68% and the “% Helicity Free” value ([1]; peptide concentration 0.40 μM) was 58%. For the same sequence, the “% Helicity Free” value ([1]; peptide concentration 2.0 μM) was 63%, the “% Helicity Bound (micelles)” value ([1]; peptide concentration 5.0 μM) was 95% and the “% Helicity Free” value ([1]; peptide concentration 5.0 μM) was 80%. The “% Helicity TFE” value ([1]; peptide concentration 50.0 μM) was 94%, the “He (%) free” value ([1]; percent helicity of free, unbound peptide) was 80% and the “He (%) SUVs” value ([1]; percent helicity of peptide-SUV complexes) was 97%. The “He (%) TFE” value ([1]; percent helicity of peptide-TFE solution) was 94%, the “He (%) mics” value ([1]; percent helicity of peptide-micelle complexes) was 95% and the “stability of the α-helical structure with temperature” value ([1]; temperature range of 5-45° C., data not shown) was “completely stable”. The “displacement of native ApoA-I from HDL (in words)” value (isolated human HDL) was “a displacement of ApoA-I was observed which increased with increasing concentration of peptide” and the “cholesterol efflux (in words)” value (HepG2 hepatoma cells) was “more efficient at cholesterol efflux than ApoA-I”.
